Source: US20130177528A1, “COMPOSITIONS AND METHODS FOR INHIBITING VIRAL INFECTION” (WESTERN UNIVERSITY OF HEALTH SCIENCES, priority 2011, published 2013)

What was measured:
Format in all cases: cell-based, herpes simplex virus type-1
[1] = system: HSV-1 (KOS) gL86; test: HSV-1 infection of HeLa, Vero and 293T cells, virus pre-incubated (Example 3); conditions: virus 30 pfu/cell pre-incubated 90 min, 6 hr
Procedure: CN blocks herpes simplex virus type-1 (HSV-1) infection of natural target cells. HeLa, Vero and 293T cells were each grown to 100% confluency in 96-well plates. The β-galactosidase-expressing recombinant virus HSV-1 (KOS) HSV-1 gL86 (30 pfu/cell) was pre-incubated with CN at the concentration indicated in FIG. 7 or mock treated with 1 X phosphate saline buffer for 90 min at room temperature. After 6 hr, the cells were washed, permeabilized and incubated with ONPG substrate (3.0 mg/ml). The β-gal enzymatic activity was measured at an optical density of 410 nm (OD 410). Each value shown in FIG. 7 is the mean of three or more determinations (±SD). Mock treated HSV-1 with PBS was used as a control. HSV-1 infection of HeLa (panel A) and Vero and 293T cells (panel B) was blocked by CN.

[2] = system: HSV-1 (KOS) gL86; test: HSV-1 infection of HeLa cells at MOIs 5, 15 and 25 PFU/cell (Example 6); conditions: virus pre-incubated 180 min, 6 hr
Procedure: HeLa cells were each grown to 100% confluency in 96-well plates. The β-galactosidase-expressing recombinant virus HSV-1 (KOS) HSV-1 gL86 […] was pre-incubated at MOIs of 5 (FIG. 10, panel A), 15 (FIG. 10, panel B) and 25 (FIG. 10, panel C) plaque-forming units per cell (PFU) with VCN (VN), CN or ADAM15 (Ad15) at the concentrations indicated or mock treated with 1 X phosphate saline buffer for 180 min at room temperature. After 6 hr, the cells were washed, permeabilized and incubated with ONPG substrate (3.0 mg/ml). The β-gal enzymatic activity was measured at an optical density of 410 nm (OD 410). Mock treated HSV-1 with PBS was used as a […] control ((+) infected with virus alone; (−) uninfected control).

[3] = system: HSV-1 (KOS) gL86; test: HSV-1 entry into gD receptor expressing CHO-K1 cells, cells pre-incubated with CN (Example 8); conditions: for HSV-1 viral entry (β-galactosidase activity, OD 410): 25 pfu/cell, 6 h
Procedure: In this experiment, Chinese hamster ovary (CHO-K1) cells expressing glycoprotein D (gD) receptors: (A) 3-OST-3, (B) herpesvirus entry mediator and (C) nectin-1 were pre-incubated with contortrostatin (CN) at indicated concentrations or mock-treated (positive control [+]) with phosphate saline buffer for 90 min at room temperature. This treatment was followed by infection with β-galactosidase-expressing recombinant virus herpes simplex virus type-1 (HSV-1; KOS) gL86 (25 pfu/cell). Uninfected cells were kept as negative control (−). After 6 h, the cells were washed, permeabilized and incubated with o-nitro-phenyl-β-o-galactopyranoside (ONPG) substrated (3.0 mg/ml) for quantitation of β-galactosidase activity expressed from the input viral genome. The enzymatic activity was measured at an optical density of 410 nm (OD 410). Error bars represent SD. a=significant difference from controls and/or treatments (P<0.05, t-test).
Viral Entry Assay. Viral entry assays were based on quantitation of β-galactosidase expressed from the viral genome in which β-galactosidase expression is inducible by HSV infection. Cells were transiently transfected in 6-well tissue culture dishes, using Lipofectamine 2000 (In vitrogen Corp) with plasmids expressing HSV-1 entry receptors (necitn-1, HVEM and 3-OST-3 expression plasmids) at 1.5 μg per well in 1 ml. At 24 hr post-transfection, cells were re-plated in 96-well tissue culture dishes (2×10^4 cells per well) at least 16 hr prior to infection. Cells were washed and exposed to serially dilute pre-incubated virus with […] or with 1×PBS at two fold dilutions for 2 hr at room temperature. In a parallel experiment the cells were also pre-incubated with NBE for 2 hr at room temperature before infection with virus. Later the cells were washed with 1×PBS and allowed 6 hr at 37° C. before solubilization in 100 μl of PBS containing 0.5% NP-40 and the -galactosidase substrate, o-nitro-phenyl-D-galactopyranoside (ONPG; ImmunoPure, PIERCE, Rockford, Ill., 3 mg/ml). The enzymatic activity was monitored at 410 nm by spectrophotometry at several time points after the addition of ONPG in order to define the interval over which the generation of the product was linear with time. Microscopy was performed using 20×objective of the microscope (Nikon). The slide book version 3.0 was used for images. All experiments were repeated a minimum of three times.
To determine the effect of CN on HSV-1 entry, we first tested the ability of HSV-1 in the presence and absence of CN to infect CHO-KI cells expressing gD receptors. HSV-1 entry into cells was determined by using β-galactosidase expressing HSV-1 reporter virus (gL86).

B1: contortrostatin (protein)
chain: DAPANPCCDAATCKLTTGSQCADGLCCDQCKFMKEGTVCRRARGDDLDDYCNGISAGCPRNPFHA
Q: How did the “HSV-1 infection (β-gal activity, OD 410)” value ([1]; 293T cells) turn out when B1 was run?
A: blocked

Q: What about the “HSV-1 infection (β-gal activity, OD 410)” value ([1]; HeLa cells) of the same molecule?
A: blocked

Q: And the “HSV-1 infection (β-gal activity, OD 410)” value ([1]; Vero cells)?
A: blocked

Q: And the “HSV-1 infection of HeLa cells, blocking and rank order (β-gal activity, OD 410)” value [2]?
A: blocked by CN >VCN >ADAM15

Q: What about the “HSV-1 viral entry (β-galactosidase activity, OD 410)” value (from here on “HSV-1 viral entry”) ([3]; CHO-K1 cells expressing 3-OST-3 pre-incubated 90 min) of the same molecule?
A: significantly blocked viral emry in a dose-dependent manner

Q: And the “HSV-1 viral entry” value ([3]; CHO-K1 cells expressing HVEM pre-incubated 90 min)?
A: significantly blocked viral emry in a dose-dependent manner

Q: And the “HSV-1 viral entry” value ([3]; CHO-K1 cells expressing nectin-1 pre-incubated 90 min)?
A: significantly blocked viral emry in a dose-dependent manner

Q: What about the “concentrations at which entry blocking activity was pronounced” value ([3]; gD-receptor expressing CHO-K1 cells) of the same molecule?
A: micromolar concentrations
